A word on the Kd: it is the concentration at which binding is half-saturated. A high value points to a looser complex.

Assay [1] concerns the target T1, human FcγRIIb extracellular domain with C-terminal His-tag (human, UniProt P31994 43-217).
T1 construct: extracellular domain; also called hFcγR IIb
T1 sequence (looked up): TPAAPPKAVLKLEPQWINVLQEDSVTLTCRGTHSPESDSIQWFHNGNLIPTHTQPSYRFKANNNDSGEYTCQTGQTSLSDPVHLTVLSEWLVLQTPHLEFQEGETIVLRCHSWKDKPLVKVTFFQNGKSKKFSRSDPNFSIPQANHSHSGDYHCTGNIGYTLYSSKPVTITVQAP
The experiment in a line: SPR; binding amount divided by that of 04H1656-G1m/04L1610-lam1. In general terms: Surface plasmon resonance follows binding to a sensor surface in real time, without labels.

The target in assay [2] is T2, human FcRn (human, UniProt P55899 24-290; P61769 21-119).
T2 construct: Prepared by the method of WO 2010/107110; also called hFcRn
T2 sequence (P55899 24-290 limits assumed, chain 1 of 2): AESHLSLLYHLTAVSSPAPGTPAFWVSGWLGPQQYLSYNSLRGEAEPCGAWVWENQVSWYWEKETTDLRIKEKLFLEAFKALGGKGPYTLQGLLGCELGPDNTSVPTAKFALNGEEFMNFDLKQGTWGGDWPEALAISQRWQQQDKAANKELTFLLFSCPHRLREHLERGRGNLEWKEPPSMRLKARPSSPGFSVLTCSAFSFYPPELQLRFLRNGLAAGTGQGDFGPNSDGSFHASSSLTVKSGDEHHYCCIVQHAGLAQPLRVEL
T2 sequence (P61769 21-119 limits assumed, chain 2 of 2): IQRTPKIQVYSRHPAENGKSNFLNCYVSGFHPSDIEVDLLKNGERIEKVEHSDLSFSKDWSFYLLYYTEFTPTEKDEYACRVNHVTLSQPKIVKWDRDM
The experiment in a line: SPR Biacore T200, captured Ab, pH 6.0, steady state.
Description: The interaction between the generated antibodies and human FcRn was analyzed by the following method using Biacore T200. 50 mM Na-Phosphate, 150 mM NaCl, 0.05% Tween20 (pH 6.0) was used as the running buffer, and the assay was performed at 25° C. For the sensor chip, Series S SA (GE Healthcare) chips onto which CaptureSelect Human Fab-lambda Kinetics Biotin Conjugate (Thermo Fisher Scientific) was immobilized were used. The antibodies of interest were captured onto these chips and FcRn diluted in the running buffer was allowed to interact with them. Chips were regenerated with 10 mM Glycine-HCl (pH 1.5) and 25 mM NaOH, and assay was performed by repeatedly capturing antibodies. The dissociation constant for FcRn of each antibody was calculated using the steady state model, using Biacore T200 Evaluation Software 2.0.

In assay [3] the target is T1, human FcγRIIb extracellular domain with …. The assay is described as follows: SPR; FcγRIIb bound amount per unit captured Ab.
Description: (§1) The interaction between the generated antibodies and human FcγRs was analyzed by the following method using Biacore T200. 50 mM Na-Phosphate, 150 mM NaCl, 0.05% Tween20 (pH 7.4) was used as the running buffer, and the assay was performed at 25° C. For the sensor chips, Series S SA (GE Healthcare) chips onto which CaptureSelect Human Fab-lambda Kinetics Biotin Conjugate (Thermo Fisher Scientific) was immobilized were used. The antibodies of interest were captured onto these chips and each FcγR diluted in the running buffer was allowed to interact with them. Chips were regenerated with 10 mM Glycine-HCl (pH 1.5) and 25 mM NaOH, and assay was performed by repeatedly capturing antibodies. The dissociation constants KD (mol/L) for FcγRs of each antibody were calculated using Biacore T200 Evaluation Software 2.0, using the 1:1 Langmuir binding model for FcγRIa and FcγRIIIa and the steady state affinity model for FcγRIIa. For FcγRIIb, the binding amount of FcγRIIb per unit amount of antibody was calculated by correcting the binding amount of FcγRIIb obtained from the sensorgram obtained by the measurement with the amount of antibody captured onto the chip surface.
In assay [4] the target is T3, human FcγRIa extracellular domain with C-terminal His-tag (human, UniProt P12314 16-292).
T3 construct: extracellular domain; also called hFcγR Ia; hFcγRIa
T3 sequence (P12314 16-292): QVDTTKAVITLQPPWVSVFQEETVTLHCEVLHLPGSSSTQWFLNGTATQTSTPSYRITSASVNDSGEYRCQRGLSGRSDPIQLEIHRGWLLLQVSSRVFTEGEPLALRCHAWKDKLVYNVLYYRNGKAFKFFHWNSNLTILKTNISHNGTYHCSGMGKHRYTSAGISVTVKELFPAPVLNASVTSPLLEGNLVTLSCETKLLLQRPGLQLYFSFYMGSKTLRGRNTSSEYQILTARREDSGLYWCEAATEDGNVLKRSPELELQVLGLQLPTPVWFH
The assay is described as follows: SPR Biacore T200, captured Ab, pH 7.4.
Description: as §1

In assay [5] the target is T4, human FcγRIIIa F allotype extracellular domain with C-terminal His-tag (human, UniProt P08637 17-208).
T4 construct: extracellular domain; also called hFcγR IIIa F
T4 sequence (P08637 17-208): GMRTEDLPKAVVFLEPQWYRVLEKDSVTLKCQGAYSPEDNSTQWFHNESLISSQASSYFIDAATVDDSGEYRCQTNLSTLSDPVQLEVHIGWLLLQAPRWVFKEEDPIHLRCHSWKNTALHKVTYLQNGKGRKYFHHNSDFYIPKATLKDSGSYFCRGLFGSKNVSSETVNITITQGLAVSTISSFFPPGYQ
The experiment in a line: SPR Biacore T200, captured Ab, pH 7.4.
Description: as §1

The target in assay [6] is T5, human FcγRIIIa V allotype extracellular domain with C-terminal His-tag (human, UniProt P08637 17-208).
T5 construct: extracellular domain; also called hFcγR IIIa V
T5 sequence (P08637 17-208 F176V): as the sequence (P08637 17-208) above, with F160V counted along it
The assay is described as follows: SPR Biacore T200, captured Ab, pH 7.4.
Description: as §1

Assay [7] has as its target T6, human FcγRIIa R allotype extracellular domain with C-terminal His-tag (human, UniProt P12318 34-217).
T6 construct: extracellular domain; also called hFcγR IIa R
T6 sequence (looked up): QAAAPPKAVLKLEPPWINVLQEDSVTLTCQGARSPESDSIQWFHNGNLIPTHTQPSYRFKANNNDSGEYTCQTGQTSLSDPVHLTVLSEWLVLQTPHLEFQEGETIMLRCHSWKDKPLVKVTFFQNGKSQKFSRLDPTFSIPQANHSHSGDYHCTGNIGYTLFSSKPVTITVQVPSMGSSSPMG
The experiment in a line: SPR Biacore T200, captured Ab, pH 7.4.
Description: as §1

Assay [8] deals with T7, human FcγRIIa H allotype extracellular domain with C-terminal His-tag (human, UniProt P12318 34-217).
T7 construct: extracellular domain; also called hFcγR IIa H
T7 sequence (looked up): T6 sequence (looked up) with R134H
The assay is described as follows: SPR Biacore T200, captured Ab, pH 7.4.
Description: as §1

Assay [9] has as its target T3, human FcγRIa extracellular domain with …. The experiment in a line: SPR; KD of 04H1656-G1m/04L1610-lam1 divided by KD of variant.
Assay [10] addresses T4, human FcγRIIIa F allotype extracellular …. Described as above.
Assay [11] concerns the target T5, human FcγRIIIa V allotype extracellular …. The assay is described as above.
The target in assay [12] is T2, human FcRn. The description is as above.
Assay [13] has as its target T6, human FcγRIIa R allotype extracellular …. The description is as above.
For assay [14], the target named is T7, human FcγRIIa H allotype extracellular …. Described as above.
Assay [15] concerns the target T1, human FcγRIIb extracellular domain with …. The experiment in a line: SPR; binding amount divided by that of 04H1389-G1m/04L1305-k0MT.
The target in assay [16] is T3, human FcγRIa extracellular domain with …. The assay is described as follows: SPR; KD of 04H1389-G1m/04L1305-k0MT divided by KD of variant.
Assay [17] deals with T4, human FcγRIIIa F allotype extracellular …. Described as above.
In assay [18] the target is T5, human FcγRIIIa V allotype extracellular …. The assay is described as above.
The target in assay [19] is T2, human FcRn. The assay is described as above.
The target in assay [20] is T6, human FcγRIIa R allotype extracellular …. The description is as above.
For assay [21], the target named is T7, human FcγRIIa H allotype extracellular …. The assay is described as above.
The target of assay [22] is T1, human FcγRIIb extracellular domain with …. The assay is described as follows: SPR; FcγRIIb bound amount per unit captured Ab. The source holds these as a separate data set.
Assay [23] deals with T3, human FcγRIa extracellular domain with …. The assay is described as follows: SPR Biacore T200, captured Ab, pH 7.4. The source holds these as a separate data set.
Assay [24] concerns the target T4, human FcγRIIIa F allotype extracellular …. The assay is described as follows: SPR Biacore T200, captured Ab, pH 7.4. This is another data set of the same source.
Assay [25] concerns the target T5, human FcγRIIIa V allotype extracellular …. The assay is described as follows: SPR Biacore T200, captured Ab, pH 7.4. The source holds these as a separate data set.
Assay [26] has as its target T6, human FcγRIIa R allotype extracellular …. The experiment in a line: SPR Biacore T200, captured Ab, pH 7.4. The source holds these as a separate data set.
Assay [27] has as its target T7, human FcγRIIa H allotype extracellular …. The assay is described as follows: SPR Biacore T200, captured Ab, pH 7.4. The source holds these as a separate data set.
The target in assay [28] is T2, human FcRn. The experiment in a line: SPR Biacore T200, captured Ab, pH 6.0, steady state. This is another data set of the same source.

Numbering of substitutions follows the chain as printed. Names and notes keep the numbering of the source. Read-outs that look alike come from different tables or passages of the source.

B1: 04H1654-KT462/04L1610-lam1//04H1656-HT441/04L1610-lam1 (antibody, human IgG1, lambda)
heavy 1: QVQLVESGGGVVQPGGSLRLSCAASGFTFSSKTMNWVRQAPGKGLEWVSSISTQSHYIYYARSVRGRFTISRDNAKNSLYLQMNSLRAEDTAVYYCARYGKREDMLWVFDYWGQGTLVTVSSASTKGPSVFPLAPSSKSTSGGTAALGCLVKDYFPEPVTVSWNSGALTSGVHTFPAVLQSSGLYSLSSVVTVPSSSLGTQTYICNVNHKPSNTKVDKRVEPKSCDKTHTCPPCPAPEFQWGPMVFLFPPKPKDVLMISRTPEVTCVVVDVSDEEPEVKFNWYVDGVEVHNAKTKPREEQYNATYRVVSVLPVLHQDWLNGKEYKCKVSNDALPAPIEKTISKAKGQPREPQVYTLPPSRKEMTKNQVSLTCLVKGFYPSDIAVEWESNGQPENNYKTTPPVLDSDGSFFLYSKLTVDKSRWQQGNVFSCSVMHEALHNHYTQKSLSLSP
heavy 2: B1 heavy 1 with R62E, K101A, F239L, Q240L, W241A, M244S, D273H, K339E, K361E, K444E
light: QSALTQPPSASGSPGQSVTISCEGPSTGVGDYNWVHWYQQHPGKAPKLMIYFTSKKPSGVPDRFSGSKSGNTASLTVSGLQAEDEADYYCQTYAAPLGPMFGGGTKLTVLGQPKAAPSVTLFPPSSEELQANKATLVCLISDFYPGAVTVAWKADSSPVKAGVETTTPSKQSNNKYAASSYLSLTPEQWKSHRSYSCQVTHEGSTVEKTVAPTECS
notes: Heterodimerized antibody
In the case of B1, the Relative binding amount in assay [1] turned out to be 1.7. Besides, the Kd in assay [2] turned out to be 2000 nM; in [4], 0.12 nM; in assay [5], 17 nM; in assay [6], 4.4 nM; in assay [7], 180 nM; in [8], 99 nM. Besides, the Binding amount in [3] came out at 0.014. Further, the “Relative value to KD between G1m and hFcγRs” value in assay [9] was found to be 0.8; in [10], 58.1; in assay [11] it was 218; in assay [13], 9; in assay [14], 13.5. In addition, the “Relative value to KD between G1m and hFcRn” value in [12] was found to be 0.9.

B2: 04H1654-KT473/04L1610-lam1//04H1656-HT451/04L1610-lam1 (antibody)
heavy 1: B1 heavy 1 with N439A, Y441T, Q443R, S445E
heavy 2: QVQLVESGGGVVQPGGSLRLSCAASGFTFSSKTMNWVRQAPGKGLEWVSSISTQSHYIYYAESVRGRFTISRDNAKNSLYLQMNSLRAEDTAVYYCARYGAREDMLWVFDYWGQGTLVTVSSASTKGPSVFPLAPSSKSTSGGTAALGCLVKDYFPEPVTVSWNSGALTSGVHTFPAVLQSSGLYSLSSVVTVPSSSLGTQTYICNVNHKPSNTKVDKRVEPKSCDKTHTCPPCPAPELLAGPSVFLFPPKPKDVLMISRTPEVTCVVVDVSHEEPEVKFNWYVDGVEVHNAKTKPREEQYNATYRVVSVLPVLHQDWLNGKEYKCKVSNDALPAPIEETISKAKGQPREPQVYTLPPSREEMTKNQVSLTCLVKGFYPSDIAVEWESNGQPENNYKTTPPVLDSDGSFFLYSKLTVDKSRWQQGNVFSCSVMHEALHAHTTREELSLSP
light: B1 light
notes: Heterodimerized antibody with N434A/Y436T/Q438R/S440E; also called SW1610-ART5+ACT1
In turn, B2 returned a Relative binding amount in [1] of 1.5. Moreover, the Kd in [2] is 540 nM; in [4] it was 0.14 nM; in assay [5], 20 nM; in [6], 5.1 nM; in [7], 180 nM; in assay [8], 92 nM. In addition, the Binding amount in [3] was 0.012. For the same molecule, the “Relative value to KD between G1m and hFcγRs” value worked out at 0.6 in [9]; 50.8 in [10]; 190 in assay [11]; 8.9 in assay [13]; 14.5 in assay [14]. The “Relative value to KD between G1m and hFcRn” value in assay [12] came to 3.2.

B3: 04H1389-Km473/04L1305-k0MT//04H1389-Hm451/04L1305-k0MT (antibody)
heavy 1: EVQLVESGGGLVKPGGSLRLSCAASGFTFSSKTMNWVRQAPGKGLEWVSSISTQSHYIYYAESVKGRFTISRDNAKNSLYLQMNSLRAEDTAVYYCARYGKREDMLWVFDYWGQGTLVTVSSASTKGPSVFPLAPSSKSTSGGTAALGCLVKDYFPEPVTVSWNSGALTSGVHTFPAVLQSSGLYSLSSVVTVPSSSLGTQTYICNVNHKPSNTKVDKRVEPKSCDKTHTCPPCPAPEFQWGPMVFLFPPKPKDVLMISRTPEVTCVVVDVSDEEPEVKFNWYVDGVEVHNAKTKPREEQYNATYRVVSVLPVLHQDWLNGKEYKCKVSNDALPAPIEKTISKAKGQPREPQVCTLPPSREEMTKNQVSLWCLVKGFYPSDIAVEWESNGQPENNYKTTPPVLDSDGSFFLYSKLTVDKSRWQQGNVFSCSVMHEALHAHTTRKELSLSP
heavy 2: B2 heavy 2 with Q1E, V11L, Q13K, R65K, A101K, E361C, T371S, L373A, Y412V, E444K
light: DIVMTQSPLSLPVTPGEPASISCDGPSTGVGDYNYVHWYQQKPGQAPRLLIYFTSKKPSGVPDRFSGSGSGTDFTLKISRVEAEDVGVYYCQTYAAPLGPMFGQGTKLEIKRTVAAPSVFIFPPSDEQLKSGTASVVCLLNNFYPREAKVQWKVDNALQSGNSQESVTEQDSKDSTYSLSSTLTLSKADYEKHKVYACEVTHQGLSSPVTKSFNRGEC
notes: Heterodimerized antibody; also called SW1389-ART5+ACT1
Regarding B3, the Relative binding amount in assay [15] came out at 1.3. The “Relative value to KD between G1m and hFcγRs” value in [16] came out at 0.5; in assay [17] it was 41.3; in [18] it was 225; in [20], 9.7; in [21], 20. The “Relative value to KD between G1m and hFcRn” value in [19] is 3. This molecule gave a Binding amount in [22] of 0.015. In addition, the Kd in [23] was found to be 0.15 nM; in assay [24], 17 nM; in assay [25], 3.9 nM; in [26], 160 nM; in [27] it was 53 nM; in assay [28], 330 nM.

Source of the values: patent US20260022175A1 (Chugai, published 2026).
